Reference: the RNAGym collection of RNA variant scans (doi:10.1101/gr.219683.116)

B1: mRNA-splicing (parent)
chain: AGUUGCUGCUGGGAGCUCCAGCACAGUGAAAUGGACAGAAGGGCAGAGCAA

Variants of: B1
Assay: exon inclusion enrichment index; higher = more inclusion; WT1 exon 5 minigene, HEK293

Variant | exon inclusion enrichment index
G5U G8U C9U A31C U32A | 0.077
G5U G8U C9U G21U | 0.078
G5U G8U C9U G21C | 0.162
G5U G8U C9U G21A | 0.0718
G5U G8U C9U G11A G12U | 0.00501
G5U G8U C9U G11A G12C | 0.0306
G5U G8U C9U G11A G12A | 0.00894
G5U G8U C9U G12C G13A | 0.0253
G5U G8U C9U G12C G13C | 0.00507
G5U G8U C9U G12C G13U | 0.0014
G5U G8U C9U G13U A14C | 0.0727
G5U G8U C9U G13U A14U | 0.0249
G5U G8U C9U G13U A14G | 0.0118
G5U G8U C9U G42A G43U | 1.46
G5U G8U C9U G42A G43C | 1.72
G5U G8U C9U G42A G43A | 1.46
G5U G8U C9U G28C A29C | 0.115
G5U G8U C9U G28C A29G | 0.342
G5U G8U C9U G28C A29U | 0.0407
G5U G8U C9U G34C A35C | 0.0104
G5U G8U C9U G34C A35G | 0.0652

Variant | exon inclusion enrichment index
G5U G8U C9U G34C A35U | 0.00745
G5U G8U C9U C19A A20G | 0.00554
G5U G8U C9U C19A A20U | 0.0164
G5U G8U C9U C19A A20C | 0.0372
G5U G8U C9U G21A C22U | 0.0464
G5U G8U C9U G21A C22A | 0.0256
G5U G8U C9U G21A C22G | 0.143
G5U G8U C9U C24U A25U | 0.127
G5U G8U C9U C24U A25G | 0.363
G5U G8U C9U C24U A25C | 0.987
G5U G8U C9U C18U C19A | 0.00338
G5U G8U C9U C18U C19G | 0.0199
G5U G8U C9U C18U C19U | 0.000815
G5U G8U C9U G28U A29C | 0.0643
G5U G8U C9U G28U A29U | 0.0195
G5U G8U C9U G28U A29G | 0.118
G5U G8U C9U A47C G48U | 0.134
G5U G8U C9U A47C G48C | 0.139
G5U G8U C9U A47C G48A | 0.0919
G5U G8U C9U C22G A23U | 0.0132
G5U G8U C9U C22G A23G | 0.0211

Variant | exon inclusion enrichment index
G5U G8U C9U C22G A23C | 0.0377
G5U G8U C9U A40C G41U | 0.079
G5U G8U C9U A40C G41C | 0.711
G5U G8U C9U A40C G41A | 0.0439
G5U G8U C9U C36U A37C | 0.0658
G5U G8U C9U C36U A37G | 0.114
G5U G8U C9U C36U A37U | 0.081
G5U G8U C9U C18A | 0.0931
G5U G8U C9U C18G | 0.139
G5U G8U C9U C18U | 0.0536
G5U G8U C9U G11U G12A | 0.00214
G5U G8U C9U G11U G12C | 0.0157
G5U G8U C9U G11U G12U | 0.00578
G5U G8U C9U C44U | 0.0292
G5U G8U C9U C44G | 0.278
G5U G8U C9U C44A | 0.454
G5U G8U C9U C36G | 0.0708
G5U G8U C9U C36U | 0.0293
G5U G8U C9U C36A | 0.0987
G5U G8U C9U A40U G41A | 0.00332
G5U G8U C9U A40U G41C | 0.508

Variant | exon inclusion enrichment index
G5U G8U C9U A40U G41U | 0.0547
G5U G8U C9U G13A A14C | 0.61
G5U G8U C9U G13A A14U | 0.349
G5U G8U C9U G13A A14G | 0.152
G5U G8U C9U A35G C36U | 0.0033
G5U G8U C9U A35G C36G | 0.00476
G5U G8U C9U A35G C36A | 0.0301
G5U G8U C9U A31G U32G | 0.0767
G5U G8U C9U A31G U32A | 1.22
G5U G8U C9U A31G U32C | 0.678
G5U G8U C9U G42C G43U | 0.515
G5U G8U C9U G42C G43A | 0.494
G5U G8U C9U G42C G43C | 0.708
G5U G8U C9U C16A U17C | 0.0818
G5U G8U C9U C16A U17A | 0.0994
G5U G8U C9U C16A U17G | 0.0387
G5U G8U C9U G42U G43A | 0.451
G5U G8U C9U G42U G43U | 0.409
G5U G8U C9U G42U G43C | 0.0971
G5U G8U C9U C16U | 0.128
